Results reported in PMC4091826 (Molecular Biology of the Cell, 2014).
Changes are numbered by the printed parent chain. Numbers in names are those of the source. Entries after “also recorded” stand apart in the source; their conditions may differ. No end group written: not given here.

T1: fluorescein-labeled P5 peptide (also: fluorescein label, position not given here)
T1 peptide: CALLLSAPRR

B1: Ssc1 E467A suppressor S201 (E467A, D519E), purified (natural protein, S. cerevisiae, UniProt P0CS90 24-654, looked up)
chain: QSTKVQGSVIGIDLGTTNSAVAIMEGKVPKIIENAEGSRTTPSVVAFTKEGERLVGIPAKRQAVVNPENTLFATKRLIGRRFEDAEVQRDIKQVPYKIVKHSNGDAWVEARGQTYSPAQIGGFVLNKMKETAEAYLGKPVKNAVVTVPAYFNDSQRQATKDAGQIVGLNVLRVVNEPTAAALAYGLEKSDSKVVAVFDLGGGTFDISILDIDNGVFEVKSTNGDTHLGGEDFDIYLLREIVSRFKTETGIDLENDRMAIQRIREAAEKAKIELSSTVSTEINLPFITADASGPKHINMKFSRAQFETLTAPLVKRTVDPVKKALKDAGLSTSDISEVLLVGGMSRMPKVVETVKSLFGKDPSKAVNPDEAVAIGAAVQGAVLSGEVTDVLLLDVTPLSLGIETLGGVFTRLIPRNTTIPTKKSQIFSTAAAGQTSVEIRVFQGARELVRDNKLIGNFTLAGIPPAPKGVPQIEVTFDIDADGIINVSARDKATNKESSITVAGSSGLSENEIEQMVNDAEKFKSQDEARKQAIETANKADQLANDTENSLKEFEGKVDKAEAQKVRDQITSLKELVARVQGGEEVNAEELKTKTEELQTSSMKLFEQLYKNDSNNNNNNNGNNAESGETKQ
B2: Q465A (protein)
chain: B1 chain with Q442A, A444E, E496D
modifications: left off: His6, end not stated, state not stated
B3: S2-V524I: suppressor S2-V524I subcloned into the E467A-D411R backbone (protein)
chain: B1 chain with E496D, V501I
modifications: left off: His6, end not stated, state not stated
B4: D411R (protein)
chain: B1 chain with D388R, A444E, E496D
modifications: left off: His6, end not stated, state not stated
B5: E467A-D411R (protein)
chain: B1 chain with D388R, E496D
modifications: left off: His6, end not stated, state not stated
B6: S209 (protein)
chain: B1 chain with K467R, E496D
modifications: left off: His6, end not stated, state not stated
B7: S1-D519E: suppressor S1-D519E subcloned into the E467A-D411R backbone (protein)
chain: B1 chain
modifications: left off: His6, end not stated, state not stated
B8: D416R (protein)
chain: B1 chain with D393R, A444E, E496D
modifications: left off: His6, end not stated, state not stated
B9: E467A-D416R (protein, UniProt P0CS90 24-654, looked up, variant E467A D416R)
Import motor subunit, …: B1 chain with D393R, E496D
B10: G466E (protein)
chain: B1 chain with G443E, A444E, E496D
modifications: left off: His6, end not stated, state not stated
B11: WT Ssc1: Wild type Ssc1 (His6), yeast mtHsp70 (protein)
chain: B1 chain with A444E, E496D
modifications: left off: His6, end not stated, state not stated
B12: S7-N508T: suppressor S7-N508T subcloned into the E467A-D411R backbone (protein)
chain: B1 chain with N485T, E496D
modifications: left off: His6, end not stated, state not stated
B13: Ssc1 E467A suppressor S205 (E467A, N508K), purified (natural protein, S. cerevisiae, UniProt P0CS90 24-654, looked up)
chain: B1 chain with N485K, E496D
B14: Ssc1 E467A suppressor S209 (E467A, K490R), purified (natural protein, S. cerevisiae, UniProt P0CS90 24-654, looked up)
chain: B1 chain with K467R, E496D
B15: Ssc1 E467A suppressor S203 (E467A, D519Y), purified (natural protein, S. cerevisiae, UniProt P0CS90 24-654, looked up)
chain: B1 chain with E496Y
B16: Ssc1 E467A suppressor S207 (E467A, N508T), purified (natural protein, S. cerevisiae, UniProt P0CS90 24-654, looked up)
chain: B1 chain with N485T, E496D
B17: Ssc1 E467A suppressor S204 (E467A, D519N), purified (natural protein, S. cerevisiae, UniProt P0CS90 24-654, looked up)
chain: B1 chain with E496N
B18: Ssc1 E467A suppressor S208 (E467A, D519G), purified (natural protein, S. cerevisiae, UniProt P0CS90 24-654, looked up)
chain: B1 chain with E496G
B19: Ssc1 E467A suppressor S202 (E467A, V524I), purified (natural protein, S. cerevisiae, UniProt P0CS90 24-654, looked up)
chain: B1 chain with E496D, V501I

What was measured:
[1] = target: T1, fluorescein-labeled P5 peptide; assay: fluorescence polarisation
Ssc1 [2] = assay: Single-turnover basal ATPase assay, Ssc1; assay type: biochemical, S. cerevisiae; settings: 25°C; for fold increase in basal ATPase activity: buffer A, versus wild type
yeast cells = assay: Growth phenotype; assay type: cell-based, S. cerevisiae; settings: minimal medium or 5-FOA medium, serial dilutions
Ssc1 [3] = assay: ATP-induced substrate release by fluorescence anisotropy, Ssc1; assay type: biochemical, S. cerevisiae; settings: 2.5 mM ATP, 5 μM Ssc1[F-P5]; for ATP-induced substrate release, in words: 5 min
Ssc1 [4] = assay: Tryptophan fluorescence quenching upon ATP binding, Ssc1; assay type: biochemical, S. cerevisiae; settings: 2.5 μM protein, 1000-fold excess ATP, wild type set at 100%
Ssc1 [5] = assay: Stimulation of ATPase activity by P5 peptide, Ssc1; assay type: biochemical, S. cerevisiae; settings: 100-fold molar excess P5, single-turnover
Ssc1 [6] = assay: Limited proteolytic cleavage by trypsin; assay type: biochemical, S. cerevisiae; settings: 1:100 (wt/wt) trypsin, 25°C, SDS-PAGE
Tim44 = assay: Coimmunoprecipitation of Ssc1 with Tim44; assay type: binding, S. cerevisiae; settings: mitochondrial lysates, anti-Ssc1, presence or absence of 1 mM ATP; Figure 6A

| Molecule | substrate release upon ATP binding [1] [%] | growth phenotype, in words (yeast cells) | further results |
| --- | --- | --- | --- |
| B1 | > 50 |  |  |
| B2 |  | viable at 30 °C but displayed temperature sensitivity at 34 and 37 °C | fold increase in basal ATPase activity (Ssc1 [2]): 2.25 fold |
| B3 |  | significant growth rescue of the E467A-D411R–associated lethality at different temperatures on 5-FOA medium |  |
| B4 |  | did not result in a growth defect; also recorded: completely viable | fold increase in basal ATPase activity (Ssc1 [2]): twofold increase; ATP-induced substrate release, in words (Ssc1 [3]): modest reductions; tryptophan fluorescence quenching upon ATP binding, in words (Ssc1 [4]): modest reductions; stimulation of ATPase activity by P5, in words (Ssc1 [5]): modest reductions in stimulation of ATPase activity by substrate |
| B5 |  | lethal, as demonstrated by lack of growth on 5-FOA | ATP-induced substrate release, in words (Ssc1 [3]): markedly compromised in ATP-dependent conformational changes required for release of bound substrate; tryptophan fluorescence quenching upon ATP binding, in words (Ssc1 [4]): markedly compromised; stimulation of ATPase activity by P5, in words (Ssc1 [5]): severely impaired stimulation by substrate |
| B6 |  |  | basal ATPase activity, in words (Ssc1 [2]): able to suppress the elevated basal activity of the mutant; stimulation of ATPase activity by P5, in words (Ssc1 [5]): could stimulate ATPase activity similar to wild-type levels; also recorded: augment peptide-mediated ATPase stimulation |
| B7 |  | significant growth rescue of the E467A-D411R–associated lethality at different temperatures on 5-FOA medium |  |
| B8 |  | severe growth defect, as evidenced by its inviability on 5-FOA medium; also recorded: inviable | fold increase in basal ATPase activity (Ssc1 [2]): 4.5 fold; substrate (peptide) release upon ATP addition (Ssc1 [3]; anisotropy decrease up to 5 min): < 10%; tryptophan fluorescence quenching upon ATP binding, in words (Ssc1 [4]): significantly lowered quenching of tryptophan fluorescence; stimulation of ATPase activity by P5, in words (Ssc1 [5]): stimulated fivefold less by P5 as compared with the wild-type protein |
| B9 |  | semidominant phenotype |  |
| B10 |  | lethal and unable to grow on 5-FOA medium | fold increase in basal ATPase activity (Ssc1 [2]): 11 fold |
| B11 |  |  | trypsin cleavage pattern, in words (Ssc1 [6]): limited proteolysis pattern, leading to formation of stable 30-kDa fragments; interaction with Tim44, in words (Tim44): robust interaction with Tim44 in the absence of ATP, and this binding was sensitive to the presence of ATP |
| B12 |  | significant growth rescue of the E467A-D411R–associated lethality at different temperatures on 5-FOA medium |  |
| B13 | > 50 |  |  |
| B14 | > 50 |  |  |
| B15 | > 50 |  |  |
| B16 | > 50 |  |  |
| B17 | > 50 |  |  |
| B18 | > 50 |  |  |
| B19 | > 50 |  |  |
